Assay results: article doi:10.1101/208041
Like-named read-outs stand apart in the source and are kept apart here.

Experiments:
Test in all cases: filter binding
MpAgo WT [1] = biological target: T1, MpAgo WT (Marinitoga piezophila, UniProt H2J4R4 1-639); conditions: biotinylated
T1 sequence: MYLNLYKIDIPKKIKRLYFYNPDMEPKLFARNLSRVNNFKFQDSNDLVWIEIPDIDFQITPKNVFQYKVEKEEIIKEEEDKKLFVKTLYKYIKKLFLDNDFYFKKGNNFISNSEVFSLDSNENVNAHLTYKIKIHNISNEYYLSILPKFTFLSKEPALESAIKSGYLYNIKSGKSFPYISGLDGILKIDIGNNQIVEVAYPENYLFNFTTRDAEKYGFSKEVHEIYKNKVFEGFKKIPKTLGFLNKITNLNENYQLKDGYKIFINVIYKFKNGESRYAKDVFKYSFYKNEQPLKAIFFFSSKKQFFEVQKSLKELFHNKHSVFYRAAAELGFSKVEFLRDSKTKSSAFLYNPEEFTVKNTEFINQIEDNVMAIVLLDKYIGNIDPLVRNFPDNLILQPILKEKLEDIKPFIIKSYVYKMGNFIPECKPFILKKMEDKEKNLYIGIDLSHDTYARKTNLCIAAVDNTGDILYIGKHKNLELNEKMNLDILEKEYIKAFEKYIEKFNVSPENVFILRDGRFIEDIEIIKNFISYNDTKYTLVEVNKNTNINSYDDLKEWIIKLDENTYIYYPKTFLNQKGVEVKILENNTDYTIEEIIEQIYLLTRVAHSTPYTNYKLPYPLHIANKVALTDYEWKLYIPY

MpAgo WT [2] = biological target: T1, MpAgo WT
MpAgo WT [3] = biological target: T1, MpAgo WT; remark: listed apart in the source
[4] = biological target: T2, dMpAgo (catalytically inactive MpAgo) (Marinitoga piezophila, UniProt H2J4R4 1-639, D446A)
T2 sequence: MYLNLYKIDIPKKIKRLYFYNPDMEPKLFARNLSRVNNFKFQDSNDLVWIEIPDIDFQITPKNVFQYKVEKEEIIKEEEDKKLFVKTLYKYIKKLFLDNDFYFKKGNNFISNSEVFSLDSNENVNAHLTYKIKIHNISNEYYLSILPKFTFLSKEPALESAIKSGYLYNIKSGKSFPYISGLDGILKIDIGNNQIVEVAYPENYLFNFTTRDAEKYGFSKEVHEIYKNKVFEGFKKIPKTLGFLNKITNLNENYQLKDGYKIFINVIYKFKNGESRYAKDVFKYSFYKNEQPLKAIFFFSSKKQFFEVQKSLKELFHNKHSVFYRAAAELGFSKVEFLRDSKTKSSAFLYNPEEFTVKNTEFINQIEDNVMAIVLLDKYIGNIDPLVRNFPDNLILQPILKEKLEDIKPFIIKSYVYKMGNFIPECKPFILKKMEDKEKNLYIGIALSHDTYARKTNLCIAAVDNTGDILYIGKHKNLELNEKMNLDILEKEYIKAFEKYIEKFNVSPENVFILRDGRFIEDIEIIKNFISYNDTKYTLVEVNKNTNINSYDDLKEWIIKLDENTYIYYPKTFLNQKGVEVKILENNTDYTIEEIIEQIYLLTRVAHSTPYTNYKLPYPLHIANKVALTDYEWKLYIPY

[5] = biological target: T2, dMpAgo (catalytically inactive MpAgo); remark: listed apart in the source
[6] = biological target: T2, dMpAgo (catalytically inactive MpAgo); remark: listed apart in the source
[7] = biological target: T2, dMpAgo (catalytically inactive MpAgo); remark: listed apart in the source
[8] = biological target: T2, dMpAgo (catalytically inactive MpAgo); remark: listed apart in the source
[9] = biological target: T2, dMpAgo (catalytically inactive MpAgo); remark: listed apart in the source
[10] = biological target: T2, dMpAgo (catalytically inactive MpAgo); remark: listed apart in the source
[11] = biological target: T2, dMpAgo (catalytically inactive MpAgo); remark: listed apart in the source
[12] = biological target: T2, dMpAgo (catalytically inactive MpAgo); remark: listed apart in the source
[13] = biological target: T2, dMpAgo (catalytically inactive MpAgo); remark: listed apart in the source
[14] = biological target: T2, dMpAgo (catalytically inactive MpAgo); remark: listed apart in the source
[15] = biological target: T2, dMpAgo (catalytically inactive MpAgo); remark: listed apart in the source

## 33-nt gRNA
MpAgo WT [1]
  Kd: 35 nM

## GAUACAACCUACUACCUCAUU (ssRNA, 5'-OH) [gRNA 5'-rG]
MpAgo WT [2]
  Kd: 49 ± 5 nM
MpAgo WT [3]
  Kd: 52 ± 4 nM

B1: G6 guide / A target (mixed)
RNA 1: UGCGGGUGCCAUAUGCAACUU
RNA 2: GGCAGCAUUCAACCAUAUGGCAACCGCAUACAGCCAAG
modifications: BrdU at guide 1
[4]
  Kd: 0.779 ± 0.071 nM

B2: G6 guide / U target (mixed)
RNA 1: UGCGGGUGCCAUAUGCAACUU
RNA 2: GGCAGCAUUCAACCAUAUGGCAUCCGCAUACAGCCAAG
modifications: BrdU at guide 1
[5]
  binding result: binds

B3: C7 guide / A target (mixed)
RNA 1: UAGCGGCUGCCAUAUCCAACU
RNA 2: GGCAGCAUUCAACCAUAUGGCAACCGCAUACAGCCAAG
modifications: BrdU at guide 1
[6]
  binding signal: ~33 fold Kd vs I target

B4: U6 guide / U target (mixed)
RNA 1: UGCGGUUGCCAUAUGCAACUU
RNA 2: GGCAGCAUUCAACCAUAUGGCAUCCGCAUACAGCCAAG
modifications: BrdU at guide 1
[7]
  binding result: binds

B5: A6 guide / A target (mixed)
RNA 1: UGCGGAUGCCAUAUGCAACUU
RNA 2: GGCAGCAUUCAACCAUAUGGCAACCGCAUACAGCCAAG
modifications: BrdU at guide 1
[8]
  binding signal: ~10 fold Kd vs I target

B6: G6 guide / C target (mixed)
RNA 1: UGCGGGUGCCAUAUGCAACUU
RNA 2: GGCAGCAUUCAACCAUAUGGCACCCGCAUACAGCCAAG
modifications: BrdU at guide 1
[9]
  binding signal: 13 fold Kd vs C6 guide/G target

B7: A6 guide / U target (complementary) (mixed)
RNA 1: UGCGGAUGCCAUAUGCAACUU
RNA 2: GGCAGCAUUCAACCAUAUGGCAUCCGCAUACAGCCAAG
modifications: BrdU at guide 1
[4]
  binding result: binds

B8: C6 guide / U target (mixed)
RNA 1: UGCGGCUGCCAUAUGCAACUU
RNA 2: GGCAGCAUUCAACCAUAUGGCAUCCGCAUACAGCCAAG
modifications: BrdU at guide 1
[7]
  binding result: binds

B9: A7 guide / C target (mixed)
RNA 1: UAGCGGAUGCCAUAUCCAACU
RNA 2: GGCAGCAUUCAACCAUAUGGCACCCGCAUACAGCCAAG
modifications: BrdU at guide 1
[10]
  binding signal: 47 fold Kd vs C7 guide/A target

B10: C6 guide / G target (mixed)
RNA 1: UGCGGCUGCCAUAUGCAACUU
RNA 2: GGCAGCAUUCAACCAUAUGGCAGCCGCAUACAGCCAAG
modifications: BrdU at guide 1
[11]
  binding result: binds

B11: U6 guide / G target (mixed)
RNA 1: UGCGGUUGCCAUAUGCAACUU
RNA 2: GGCAGCAUUCAACCAUAUGGCAGCCGCAUACAGCCAAG
modifications: BrdU at guide 1
[8]
  binding signal: 21 fold Kd vs G6 guide/U target

B12: A6 guide / mm1 (mixed)
RNA 1: UGCGGAUGCCAUAUGCAACUU
RNA 2: GGCAGCAUUCAACCAUAUGGCAUCCGCUUACAGCCAAG
modifications: BrdU at guide 1
[12]
  binding result: binds

B13: BrdU guide / ON target (mixed)
RNA 1: UAUACAACCUACUACCUCAUU
RNA 2: GGACUAUGAUCUAGAUAUUAAUGAGGUAGUAGGUUGUAUCUCAGGAGGUC
modifications: BrdU at guide 1
[13]
  Kd: 0.175 ± 0.023 nM
[14]
  Kd: 0.193 ± 0.02 nM
[15]
  Kd: 0.5 ± 0.115 nM

B14: BrdU guide / OFF target (mixed)
RNA 1: UAUACAACCUACUACCUCAUU
RNA 2: GUUAUGUGUGUGAUUAUAUUUGUUCCAGUUCCUGUGUAAUAGACAUGGAA
modifications: BrdU at guide 1
[13]
  binding result: no binding
